{"source": "paper PMC6857237", "about": "“Design and structural characterisation of olfactomedin-1 variants as tools for functional studies” (BMC Molecular and Cell Biology, 2019)", "proteins": {"B1": {"name": "Olfm1^coil-Olf (olfactomedin-1 part of the coiled coil plus Olfactomedin domain, residues 212–478), disulfide-linked dimer (domain or fragment, mouse (Mus musculus))", "chain": "GSSNLEERLRACMQKLACGKLTGISDPVTVKTSGSRFGSWMTDPLAPEGDNRVWYMDGYHNNRFVREYKSMVDFMNTDNFTSHRLPHPWSGTGQVVYNGSIYFNKFQSHIIIRFDLKTEAILKTRSLDYAGYNNMYHYAWGGHSDIDLMVDENGLWAVYATNQNAGNIVISKLDPVSLQILQTWNTSYPKRSAGEAFIICGTLYVTNGYSGGTKVHYAYQTNASTYEYIDIPFQNKYSHISMLDYNPKDRALYAWNNGHQTLYNVTLFHAAA", "modifications": "N-linked glycans (8 per dimer, GntI-/- cells); inter-chain disulfide Cys221-Cys221; for crystallisation deglycosylated with Endo-H", "notes": "N-terminal residues left by the restriction site in the mature protein; Olfactomedin-1 (Olfm1), mouse, BMZ isoform cDNA as template, residues 212-478 (UNIPROT numbering); C-terminal VIRSDEL not included; includes Cys221; Only about a third of the expressed sample formed the disulfide-linked dimer; the dimer fraction was isolated by SEC and used; Secreted with a cystatin signal peptide (not in the …)"}}, "target": "the molecule itself", "assay": "SEC-MALS; analytical Superdex200 Increase 10/300, room temperature, SEC buffer (150 mM NaCl, 2 mM CaCl2, 20 mM HEPES pH 7.5), 0.5 mL/min; aldolase as calibration standard", "data": [{"protein": "B1", "values": [{"measurement": "stoichiometry N", "result": 2}]}]}
